Data reported in patent US20110008302.
Changes are numbered by the printed parent chain. In names and notes the source's numbering stands.

T1: H3K36(me2) peptide ATGGV-K(me2)-KPHRY
T1 chain: ATGGVKKPHRY

T2: H3K4(me3) peptide ART-K(me3)-QTARKST
T2 chain: ARTKQTARKST

B1: bacterially expressed mouse Ndy1 fragment containing the JmjC, CXXC and PHD domains (aa 171-707) (protein)
chain: MWPQHLKEKQTEATNALAEMKYPKVKKYCLMSVKGCFTDFHIDFGGTSVWYHVFRGGKIFWLIPPTLHNLALYEEWVLSGKQSDIFLGDRVERCQRIELKQGYTFFIPSGWIHAVYTPVDSLVFGGNILHSFNVPMQLRIYEIEDRTRVQPKFRYPFYYEMCWYVLERYVYCVTQRSYLTQEYQRELMLIDAPRKTSVDGFSSDSWLDMEEESCEQQPQEEEEEEEDKEEEGDGADKTPKPPTDDPTSPTSTPPEDQDSTGKKPKAPAIRFLKRTLSNESEESVKSTSMPTDDPKTPTGSPATEVSTKWTHLTEFELKGLKALVEKLESLPENKKCVPEGIEDPQALLEGVKNVLKEHVDDDPTLAITGVPVVSWPKKTAKNRVVGRPKGKLGPASAVKLAANRTTAGARRRRTRCRKCEACLRTECGECHFCKDMKKFGGPGRMKQSCIMRQCIAPVLPHTAVCLVCGEAGKEDTVEEEEGKFNLMLMECSICNEIIHPGCLKIKESEGVVNDELPNCWECPKCNHAGKTGKQKRG
B2: 171-707 Ndy1 fragment containing the Y221A mutation (protein)
chain: B1 chain with Y51A

Legend:
[1] = target: T1, H3K36(me2) peptide ATGGV-K(me2)-KPHRY
[2] = target: T2, H3K4(me3) peptide ART-K(me3)-QTARKST

| Protein | fluorescence coupled demethylation assay [1] | specific activity (ratio H3K36me2 versus H3K4me3 peptide) [1] | fluorescence coupled demethylation assay [2] |
| --- | --- | --- | --- |
| B1 | shown to demethylate both H3K36me2 and H3K4me3 peptides, with high and low efficiencies respectively | about three times higher specific activity towards the H3K36me2 versus the H3K4me3 peptide | shown to demethylate both H3K36me2 and H3K4me3 peptides, with high and low efficiencies respectively |
| B2 | failed to demethylate either of the peptide substrates |  | failed to demethylate either of the peptide substrates |
